For assay [1], the target named is A3B3D (A-His8/ΔCys, A-C255A/A-S232A/A-T235S, D/E48C) labelled with Cy3-maleimide on subunit D (Thermus thermophilus) (UniProt Q56403). Put plainly: FRET or BRET. For orientation: BRET reads energy transfer from a luciferase to a nearby fluorophore.
For assay [2], the target named is V1 (A-His8/ΔCys, A-C255A/A-S232A/A-T235S/F-S54C) labelled with Cy3-maleimide on subunit F (Thermus thermophilus) (UniProt Q56403). Nature of the assay: FRET or BRET.

As for “Vo (C-S105C/C-C268S/C-C323S) labelled with Cy5-maleimide on subunit C (from UniProt P74902 1-323; P74901 1-188) (complex)”, the Kd (commonly the equilibrium constant for the complex coming apart) came out at 1.1 nM in assay [1] and 0.26 nM in assay [2].

(Values after publication PMC3397886.)
